We go through 9 molecules from US20100048468A1 (Amgen, published 2010).

Assay [1] concerns the target T1, human GLP-1 receptor (human, UniProt P43220 24-463). The experiment in a line: 125I-GLP-1 displacement, membranes of CHOK1 cells expressing human GLP-1 receptor.
Assay [2] deals with T1, human GLP-1 receptor. The assay is described as follows: cell-based or functional assay.
Assay [3] concerns the target T2, mouse GLP-1 receptor (mouse, UniProt O35659 22-463).
T2 sequence (looked up): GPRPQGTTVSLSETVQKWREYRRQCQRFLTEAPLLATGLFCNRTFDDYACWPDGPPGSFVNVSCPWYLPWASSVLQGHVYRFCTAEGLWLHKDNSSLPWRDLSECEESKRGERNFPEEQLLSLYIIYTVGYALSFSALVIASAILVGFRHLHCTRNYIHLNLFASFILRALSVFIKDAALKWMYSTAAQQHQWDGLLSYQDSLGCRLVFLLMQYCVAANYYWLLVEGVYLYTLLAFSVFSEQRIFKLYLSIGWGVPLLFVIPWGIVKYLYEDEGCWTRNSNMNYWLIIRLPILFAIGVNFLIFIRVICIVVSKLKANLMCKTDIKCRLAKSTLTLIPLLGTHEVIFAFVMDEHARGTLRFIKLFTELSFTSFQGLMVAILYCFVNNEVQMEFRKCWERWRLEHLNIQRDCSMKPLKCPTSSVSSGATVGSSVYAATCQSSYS
The assay is described as follows: cell-based or functional assay.

The target of assay [4] is T3, mouse GLP-1 receptor (mouse), O35659.
T3 chain: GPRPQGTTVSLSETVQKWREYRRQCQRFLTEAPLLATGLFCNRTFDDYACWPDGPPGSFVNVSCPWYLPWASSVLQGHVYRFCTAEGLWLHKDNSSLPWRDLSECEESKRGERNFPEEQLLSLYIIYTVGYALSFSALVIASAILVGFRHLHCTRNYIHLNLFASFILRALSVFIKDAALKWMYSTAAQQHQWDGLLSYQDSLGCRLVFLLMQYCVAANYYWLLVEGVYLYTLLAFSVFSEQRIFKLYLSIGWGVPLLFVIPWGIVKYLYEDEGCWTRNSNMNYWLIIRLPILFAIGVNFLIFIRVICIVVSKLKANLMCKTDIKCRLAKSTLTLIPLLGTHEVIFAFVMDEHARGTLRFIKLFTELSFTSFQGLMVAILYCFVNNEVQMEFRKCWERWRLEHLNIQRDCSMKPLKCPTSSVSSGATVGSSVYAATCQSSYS
The assay is described as follows: cell-based or functional assay.

Assay [5] addresses T4, human GLP-1 receptor (human), P43220.
T4 chain: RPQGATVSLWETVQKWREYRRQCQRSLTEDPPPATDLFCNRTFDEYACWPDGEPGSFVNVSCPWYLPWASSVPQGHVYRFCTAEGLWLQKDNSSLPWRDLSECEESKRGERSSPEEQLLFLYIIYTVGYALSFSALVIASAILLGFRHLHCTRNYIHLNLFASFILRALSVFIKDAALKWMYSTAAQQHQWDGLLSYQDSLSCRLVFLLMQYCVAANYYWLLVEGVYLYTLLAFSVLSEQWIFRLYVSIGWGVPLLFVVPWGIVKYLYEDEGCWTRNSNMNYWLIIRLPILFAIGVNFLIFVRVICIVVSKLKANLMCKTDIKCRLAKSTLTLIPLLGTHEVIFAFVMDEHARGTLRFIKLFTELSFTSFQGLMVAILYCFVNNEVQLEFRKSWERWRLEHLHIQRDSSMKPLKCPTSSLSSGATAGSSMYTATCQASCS
The assay is described as follows: cell-based or functional assay.

Assay [6] shares this target. The experiment in a line: 125I-GLP-1 displacement, membranes of CHOK1 cells expressing human GLP-1 receptor.
Assay [7] deals with T1, human GLP-1 receptor. Described as above. As for the experimental part:
(§1) Membrane Preparation. […] Cells were sedimented at 1500 rpm for 10 minutes. The resulting pellets were homogenized in 15 mls of ice cold sucrose buffer (25 mM Tris-HCl, 0.32 M Sucrose, 0.25 g/L, sodium azide, pH 7.4) with a motorized, glass fitted, Teflon homogenizer. The homogenate was centrifuged at 48,000×g at 4° C. for 10 minutes, resuspended in 25 ml assay buffer (50 mM Tris-HCl, 5 mM MgCl₂, 10 mg/ml protease-free BSA, 0.1 mg/ml STI, and 0.1 mg/ml Pefabloc, pH 7.4) with a Tissue-Tearor (Biospec Products), then centrifuged again at 48,000×g for 10 minutes. The pellets were homogenized for a third time in 15 ml assay buffer using the Tissue-Tearor and again centrifuged at 48,000×g for 10 minutes. The resulting pellet was resuspended in assay buffer at a wet weight concentration of 4 mg/ml.
Ligand Binding Assay. Binding assays were performed in 96-well U-bottom plates. […] The reaction was terminated by rapid filtration through Unfilter-96 GF/C glass fiber filter plates (FilterMate 196 Packard Harvester, PerkinElmer, Shelton, Conn.) pre-soaked in 0.5% polyethylenimine, followed by three washes with 300 μl of cold 50 mM Tris-HCl, pH 7.4. Bound radioactivity was determined using a TopCount microplate scintillation and luminescence counter (Packard Instrument Company, PerkinElmer, Shelton, Conn.). Nonlinear regression analyses of resulting concentration curves were performed using GraphPad Prism (GraphPad Software, Inc., San Diego, Calif.).
The pegylated molecules were conjugated at the cysteine at position 38.

Assay [8] addresses T1, human GLP-1 receptor. The experiment in a line: cell-based or functional assay. The source holds these as a separate data set.
For assay [9], the target named is T2, mouse GLP-1 receptor. The assay is described as follows: cell-based or functional assay. This is another data set of the same source.
Assay [10] has as its target T1, human GLP-1 receptor. The experiment in a line: cell-based or functional assay. The source holds these as a separate data set.
For assay [11], the target named is T2, mouse GLP-1 receptor. The assay is described as follows: cell-based or functional assay. The source holds these as a separate data set.
Assay [12] has as its target T1, human GLP-1 receptor. The assay is described as follows: 125I-GLP-1 displacement, membranes of CHOK1 cells expressing human GLP-1 receptor. On the procedure:
as §1
Ligand Binding Assay. Binding assays were performed in 96-well U-bottom plates. […] The reaction was terminated by rapid filtration through Unfilter-96 GF/C glass fiber filter plates (FilterMate 196 Packard Harvester, PerkinElmer, Shelton, Conn.) pre-soaked in 0.5% polyethylenimine, followed by three washes with 300 μl of cold 50 mM Tris-HCl, pH 7.4. Bound radioactivity was determined using a TopCount microplate scintillation and luminescence counter (Packard Instrument Company, PerkinElmer, Shelton, Conn.). […]
The source holds these as a separate data set.

Where two headings read alike, the source gives them in different places. Positions of bridges follow the written chain, without caps; N, C: chain ends. No end group written: not given here.

As usually defined, the IC50 is the midpoint of a concentration-inhibition curve. Read a low IC50 as inhibition by little substance. For the molecule “HGEGT FTSDV SSYLE [Aib]QAAK EFIAW LVKGR-AMIDE (SEQ ID NO: 14) (peptide)”, the IC50 in [1] stood at 2.5 nM. In addition, in [2], the EC50 human stood at 0.016 nM. In addition, the EC50 mouse in assay [3] is 0.15 nM.

B1: cgGLP-10 (SEQ ID NO: 10 + 20k PEG dimer) (peptide)
peptide: HGEGTFTSDVSSYLEGQAAKEFIAWLVKGRGCSG
modifications: not checked
B1 showed an EC50 mouse in assay [4] of 4 nM. The molecule also showed an EC50 human in assay [5] of 0.6 nM. In assay [6], this molecule registered a 50% inhibitory concentration (IC50) of 100 nM.

B2: cgGLP-4 & mgGLP-09A (SEQ ID NO: 10 + 20k PEG) (peptide)
peptide: HGEGTFTSDVSSYLEGQAAKEFIAWLVKGRGCSG
modifications: not fully specified (residue 32)
notes: also called cgGLP-09A
With B2, the 50% inhibitory concentration (IC50) in assay [7] is 130 nM. Besides, the EC50 human in [8] came out at 0.23 nM. In addition, in assay [9], the EC50 mouse stood at 1.8 nM.

B3: cgGLP-6 (SEQ ID NO: 10 + 8k PEG dumbbell) (peptide)
peptide: HGEGTFTSDVSSYLEGQAAKEFIAWLVKGRGCSG
modifications: not fully specified (residue 32); also: dimer: two peptides on one mal-PEG-mal, one at each end
B3 returned an IC50 in [7] of 11 nM. Moreover, in [8], the EC50 human is about 0.1 nM. In [9], this molecule yielded an EC50 mouse of 0.8 nM.

B4: H[Aib]EGT FTSDVSSYLEGQAAKEFIAWLVKGRGCSGG (SEQ ID NO: 11) (peptide)
peptide: HXEGTFTSDVSSYLEGQAAKEFIAWLVKGRGCSGG
modifications: Aib (2-aminoisobutyric acid) at position 8 (GLP-1 numbering; residue 2 of the entry)
notes: Unconjugated peptide
Consider B4, for which the half-maximal inhibitory concentration (IC50) in assay [7] stood at 100 nM. Moreover, the EC50 human in assay [8] was 4 nM. This molecule yielded an EC50 mouse in [9] of over 50 nM.

B5: cgGLP-17 (SEQ ID NO: 11 + 20k PEG) (peptide)
peptide: HXEGTFTSDVSSYLEGQAAKEFIAWLVKGRGCSGG
modifications: Aib at position 8 (residue 2 of the entry); 20k PEG on the cysteine at position 38 (GLP-1 numbering; residue 32 of the entry)
B5 had an IC50 in assay [7] of 1000 nM. For the same molecule, in assay [8], the EC50 human came to 20 nM. Further, in assay [9], the EC50 mouse was over 100 nM.

B6: GLP1(7-37) cyclo[Lys16-Glu20] (SEQ ID NO: 159) (peptide)
peptide: HGEGTFTSDVSSYLEKQAAEEFIAWLVKGRG-NH2
modifications: lactam 16-20; N-terminus assumed
SMILES: CC[C@H](C)[C@H](NC(=O)[C@H](Cc1ccccc1)NC(=O)[C@H](CCC(=O)O)NC(=O)[C@@H]1CCC(=O)NCCCC[C@H](NC(=O)[C@H](CCC(=O)O)NC(=O)[C@H](CC(C)C)NC(=O)[C@H](Cc2ccc(O)cc2)NC(=O)[C@H](CO)NC(=O)[C@H](CO)NC(=O)[C@@H](NC(=O)[C@H](CC(=O)O)NC(=O)[C@H](CO)NC(=O)[C@@H](NC(=O)[C@H](Cc2ccccc2)NC(=O)[C@@H](NC(=O)CNC(=O)[C@H](CCC(=O)O)NC(=O)CNC(=O)[C@@H](N)Cc2c[nH]cn2)[C@@H](C)O)[C@@H](C)O)C(C)C)C(=O)N[C@@H](CCC(N)=O)C(=O)N[C@@H](C)C(=O)N[C@@H](C)C(=O)N1)C(=O)N[C@@H](C)C(=O)N[C@@H](Cc1c[nH]c2ccccc12)C(=O)N[C@@H](CC(C)C)C(=O)N[C@H](C(=O)N[C@@H](CCCCN)C(=O)NCC(=O)N[C@@H](CCCNC(=N)N)C(=O)NCC(N)=O)C(C)C
Molecule B6 displayed an EC50 human in [10] of 0.016 nM. In assay [11], the EC50 mouse stood at 0.1 nM.

B7: cgGLP-9 (SEQ ID NO: 6 + 20k PEG dimer) (peptide)
peptide: HGEGTFTSDVSSYLEGCAAKEFIAWLVKGRG
modifications: not checked
Molecule B7 came in with an EC50 mouse in [4] of 9 nM. Besides, the EC50 human in [2] came out at 1 nM.

B8: cycloE22-O26 (SEQ ID NO: 69) (peptide)
peptide: HGEGTFTSDVSSYLEEQAAXEFIAWLVKGRG
modifications: ornithine at position 26 (GLP-1 numbering; residue 20 of the entry); side-chain cyclic lactam between Glu22 and Orn26; C-terminal amide
notes: Not pegylated
For B8, the IC50 in [12] stood at 3.7 nM. Moreover, the EC50 human in assay [10] came to 0.051 nM.
